Reference: paper PMC11203801

Columns and labels:
Settings in all cases: remark: other sources report otherwise
[1] = target: human HSP60 (60-kDa Heat Shock Protein) (human), P10809; assay: native gel or EMSA; HSP60 and HSP10 mixed at the same molar ratio, PBS or Mizoribine below 10 mM (1, 5 mM); Native/PAGE gradient gel, Coomassie stain
[2] = target: human HSP60 (60-kDa Heat Shock Protein) (human), P10809; assay: negative-stain transmission electron microscopy; HSP60 and HSP10 (0.1 mM) incubated for 10 min with 10 mM Mizoribine, treated with 2% uranyl acetate; particles classified and counted
[3] = target: human HSP60 (60-kDa Heat Shock Protein) (human), P10809; assay: negative-stain transmission electron microscopy; HSP60 and HSP10 (0.1 mM) incubated for 10 min in the absence of Mizoribine, treated with 2% uranyl acetate; particles classified and counted
[4] = target: human HSP60 (60-kDa Heat Shock Protein) (human), P10809; assay: native gel or EMSA; purified HSP60 and HSP10 each run on Native-PAGE (5-12% gradient gel by the legend; Blue NativePAGE 3-12% Bis-Tris by the methods), in the absence of ATP, Coomassie stain

stoichiometry N [1]: 7
share of observed particles as HSP60 (7) (single ring structure, no HSP10), with 10 mM Mizoribine [2]: 4%
stoichiometry N [3]: 7
stoichiometry N [4]: 7
B1: human HSP60 (60-kDa Heat Shock Protein), P10809 27-573 (natural protein)
chain: AKDVKFGADARALMLQGVDLLADAVAVTMGPKGRTVIIEQSWGSPKVTKDGVTVAKSIDLKDKYKNIGAKLVQDVANNTNEEAGDGTTTATVLARSIAKEGFEKISKGANPVEIRRGVMLAVDAVIAELKKQSKPVTTPEEIAQVATISANGDKEIGNIISDAMKKVGRKGVITVKDGKTLNDELEIIEGMKFDRGYISPYFINTSKGQKCEFQDAYVLLSEKKISSIQSIVPALEIANAHRKPLVIIAEDVDGEALSTLVLNRLKVGLQVVAVKAPGFGDNRKNQLKDMAIATGGAVFGEEGLTLNLEDVQPHDLGKVGEVIVTKDDAMLLKGKGDKAQIEKRIQEIIEQLDVTTSEYEKEKLNERLAKLSDGVAVLKVGGTSDVEVNEKKDRVTDALNATRAAVEEGIVLGGGCALLRCIPALDSLTPANEDQKIGIEIIKRTLKIPAMTIAKNAGVEGSLIVEKIMQSSSEVGYDAMAGDFVNMVEKGIIDPTKVVRTALLDAAGVASLLTTAEVVVTEIPKEEKDPGMGAMGGMGGGMGGGMF
